Test results: patent US20230138315A1 (JIANGSU HENGRUI MEDICINE, published 2023)

Assays:
Test in all cases: HTRF; biotin-labelled antigen with Streptavidin-Tb cryptate
rat ANGPTL3(17-455)-His = target: T1, rat ANGPTL3(17-455)-His (rat, biotin-labelled in the ELISA and HTRF assays (sites not given))
T1 construct: also called full-length rat ANGPTL3
T1 chain: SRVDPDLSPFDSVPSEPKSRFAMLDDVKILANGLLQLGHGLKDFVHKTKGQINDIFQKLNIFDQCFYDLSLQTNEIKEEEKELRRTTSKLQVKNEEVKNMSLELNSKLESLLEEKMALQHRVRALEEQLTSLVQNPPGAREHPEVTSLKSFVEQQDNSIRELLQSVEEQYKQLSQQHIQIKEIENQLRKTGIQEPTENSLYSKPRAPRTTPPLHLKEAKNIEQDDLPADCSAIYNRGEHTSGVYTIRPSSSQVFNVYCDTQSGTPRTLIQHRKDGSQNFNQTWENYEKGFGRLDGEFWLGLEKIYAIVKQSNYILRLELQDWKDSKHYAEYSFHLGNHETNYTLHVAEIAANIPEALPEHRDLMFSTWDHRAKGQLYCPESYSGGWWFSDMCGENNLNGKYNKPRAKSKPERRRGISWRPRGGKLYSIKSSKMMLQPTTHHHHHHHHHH

[1] = target: T2, human-ANGPTL3(17-460)-His (human, UniProt Q9Y5C1 17-460, biotin-labelled (labelling kit, sites not stated))
T2 construct: also called full-length human ANGPTL3
T2 sequence: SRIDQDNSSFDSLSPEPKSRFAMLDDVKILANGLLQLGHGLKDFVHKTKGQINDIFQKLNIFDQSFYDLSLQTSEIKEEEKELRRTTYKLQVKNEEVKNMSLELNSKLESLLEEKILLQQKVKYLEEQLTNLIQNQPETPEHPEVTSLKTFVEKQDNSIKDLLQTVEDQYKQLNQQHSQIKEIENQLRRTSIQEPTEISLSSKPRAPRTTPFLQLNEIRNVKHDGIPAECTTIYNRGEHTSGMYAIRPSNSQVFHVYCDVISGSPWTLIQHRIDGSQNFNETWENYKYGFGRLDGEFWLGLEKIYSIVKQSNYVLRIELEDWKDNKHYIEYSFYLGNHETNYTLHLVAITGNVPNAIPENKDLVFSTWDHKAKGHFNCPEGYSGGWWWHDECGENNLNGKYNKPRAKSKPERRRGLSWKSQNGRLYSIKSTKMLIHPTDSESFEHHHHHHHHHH

[2] = target: T3, mouse ANGPTL3(17-455)-His (mouse, UniProt Q9R182 17-455, biotin-labelled in the ELISA and HTRF assays (sites not given))
T3 construct: also called full-length mouse ANGPTL3
T3 sequence: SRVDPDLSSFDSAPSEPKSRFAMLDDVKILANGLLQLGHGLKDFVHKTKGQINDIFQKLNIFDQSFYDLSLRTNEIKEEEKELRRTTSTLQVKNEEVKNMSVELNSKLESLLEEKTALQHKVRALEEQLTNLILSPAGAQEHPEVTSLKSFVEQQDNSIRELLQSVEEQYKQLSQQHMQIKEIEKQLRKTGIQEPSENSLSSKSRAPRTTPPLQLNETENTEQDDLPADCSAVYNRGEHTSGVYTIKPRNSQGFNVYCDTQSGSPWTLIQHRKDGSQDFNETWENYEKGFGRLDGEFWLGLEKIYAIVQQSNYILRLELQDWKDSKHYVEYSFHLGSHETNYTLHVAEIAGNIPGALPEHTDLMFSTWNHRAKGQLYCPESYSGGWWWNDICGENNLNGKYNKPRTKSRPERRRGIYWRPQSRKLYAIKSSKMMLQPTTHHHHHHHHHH

[3] = target: T4, cynomolgus monkey ANGPTL3(17-460)-His (cynomolgus monkey, UniProt Q9Y5C1 17-460 (human entry), biotin-labelled in the ELISA and HTRF assays (sites not given))
T4 construct: also called full-length cynomolgus monkey ANGPTL3; Cyno ANGPTL3
T4 chain: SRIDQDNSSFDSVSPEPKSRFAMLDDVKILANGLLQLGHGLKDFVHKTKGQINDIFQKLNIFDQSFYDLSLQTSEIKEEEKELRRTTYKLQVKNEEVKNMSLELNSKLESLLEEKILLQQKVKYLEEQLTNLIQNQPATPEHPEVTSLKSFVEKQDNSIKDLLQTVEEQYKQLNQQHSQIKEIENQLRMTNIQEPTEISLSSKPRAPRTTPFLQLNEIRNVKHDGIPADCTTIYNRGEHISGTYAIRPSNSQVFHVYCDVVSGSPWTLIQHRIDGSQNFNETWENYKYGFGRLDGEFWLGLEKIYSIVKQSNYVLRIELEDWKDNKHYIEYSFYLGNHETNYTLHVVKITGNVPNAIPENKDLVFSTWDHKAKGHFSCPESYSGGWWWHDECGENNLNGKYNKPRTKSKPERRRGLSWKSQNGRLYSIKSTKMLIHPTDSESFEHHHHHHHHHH

- EC50 (rat ANGPTL3(17-455)-His): 0.362 nM
- EC50 [1]: 0.277 nM
- EC50 [2]: 0.321 nM
- EC50 [3]: 0.36 nM
B1: P8BG (antibody, human IgG4 S228P, kappa, V domains shown)
VH: QVQLVQSGAEVKKPGASVKVSCKASGYTFTSYDINWVRQAPGQGLEWVGLINPREDSTSYAQKFQGRVTMTRDTSTSTMYMELSSLRSEDTAVYFCARDLGSIREVLYYGMDVWGQGTTVTVSS
VL: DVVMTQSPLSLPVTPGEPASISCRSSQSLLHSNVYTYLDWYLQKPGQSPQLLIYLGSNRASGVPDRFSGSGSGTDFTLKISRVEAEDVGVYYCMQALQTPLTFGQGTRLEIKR
notes: also called anti-ANGPTL3 antibody P8BG; P8B (variable regions)
